Reference: publication doi:10.1101/2022.10.28.514248 (bioRxiv, 2022)

Biological target: the molecule itself
Experiment: crystal structure

B1: GDAP1ΔTM T157P (Ganglioside-induced differentiation-associated protein 1, amino acids 1-322, T157P) (domain or fragment, mouse)
chain: GGSMARRQDEARAGVPLRVEGPPDKEVHLILYHWTHSFSSQKVRLVIAEKALKCEEHDVSLPLSEHNEPWFMRLNSAGEVPVLVHGENIICEATQIIDYLEQTFLDERTPRLMPDEGSMYYPRVQHYRELLDSLPMDAYTHGCILHPELTVDSMIPAYAPTRIRSQIGNTESELKKLAEENPDLQEAYIAKQKRLKSKLLDHDNVKYLKKILDELEKVLDQVETELQRRNEETPEEGNQPWLCGESFTLADVSLAVTLHRLKFLGFARRNWGHGKRPNLETYYERVLKRKTFNKVLGHVNNILISAVLPTAFRVAKKRAPKVLGS
Does B1 bind?
Result: binds
